Data as given in patent US8765674B2, “Methods useful in the treatment of bone resorption diseases” (NPS Pharmaceuticals, Inc., priority 1997, dated 2014).

B1: PTH: Parathyroid hormone, an 84 amino acid polypeptide normally secreted from the parathyroid glands (protein, UniProt P01270 32-115, looked up)
Parathyroid hormone: SVSEIQLMHNLGKHLNSMERVEWLRKKLQDVHNFVALGAPLAPRDAGSQRPRKKEDNVLVESHEKSLGEADKADVNVLTKAKSQ
B2: intact human PTH (1-84): intact human parathyroid hormone, full-length 84 amino acid polypeptide (protein, UniProt P01270 32-115, looked up)
Parathyroid hormone: B1 Parathyroid hormone

How the values were obtained:
[1] = tested on: patient with osteoporosis; details: during therapy with PTH, cited from earlier work
[2] = tested on: Postmenopausal females with osteoporosis; experiment: Clinical study: PTH (1-84) given for one year, bone mineral density; format: in vivo, human; details: subcutaneous injection, 50 to 100 micrograms daily
Source text: Postmenopausal females (n=172) with osteoporosis were given intact human PTH (1-84), as a subcutaneous injection, for one year in doses from 50 to 100 micrograms daily. It was shown that bone mineral density of the spine was increased in the lumbar spine, on the average by 8%. Increases in individual patients were considerably more than 10%. The changes of the femoral neck were smaller and ranged from 1 to 3%.

Molecule | activation frequency ([1]; calculated) | bone mineral density in the femoral neck [1] | increases of lumbar spine bone mineral density in individual patients [2] | increase of bone mineral density of the lumbar spine, on the average ([2]; n=172) [%]
B1 | doubled | largely unaffected |  | 
B2 |  |  | more than 10% | 8
